{
  "source": "patent US20120220489A1",
  "key": {"[1]": {"target": "ERK2 (p42), human, Biosource PHO 0104 (human) (UniProt P28482)", "sequence (P28482 2-360 limits assumed)": "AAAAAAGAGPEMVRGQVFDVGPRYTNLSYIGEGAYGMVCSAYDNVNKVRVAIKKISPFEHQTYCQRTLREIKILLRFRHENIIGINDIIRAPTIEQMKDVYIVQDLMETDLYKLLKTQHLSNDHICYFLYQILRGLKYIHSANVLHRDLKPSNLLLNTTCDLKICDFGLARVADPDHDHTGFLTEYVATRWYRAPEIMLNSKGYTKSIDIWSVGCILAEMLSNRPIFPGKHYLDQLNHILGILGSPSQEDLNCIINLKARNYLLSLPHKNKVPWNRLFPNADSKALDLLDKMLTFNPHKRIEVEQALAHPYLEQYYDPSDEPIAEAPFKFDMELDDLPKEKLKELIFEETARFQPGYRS", "assay": "RPA, competition: +free pRb peptide 100 nM"}, "[2]": {"target": "pRb recombinant protein, human, Active Motif 31 128 (human) (UniProt P06400)", "sequence (P06400 whole entry)": "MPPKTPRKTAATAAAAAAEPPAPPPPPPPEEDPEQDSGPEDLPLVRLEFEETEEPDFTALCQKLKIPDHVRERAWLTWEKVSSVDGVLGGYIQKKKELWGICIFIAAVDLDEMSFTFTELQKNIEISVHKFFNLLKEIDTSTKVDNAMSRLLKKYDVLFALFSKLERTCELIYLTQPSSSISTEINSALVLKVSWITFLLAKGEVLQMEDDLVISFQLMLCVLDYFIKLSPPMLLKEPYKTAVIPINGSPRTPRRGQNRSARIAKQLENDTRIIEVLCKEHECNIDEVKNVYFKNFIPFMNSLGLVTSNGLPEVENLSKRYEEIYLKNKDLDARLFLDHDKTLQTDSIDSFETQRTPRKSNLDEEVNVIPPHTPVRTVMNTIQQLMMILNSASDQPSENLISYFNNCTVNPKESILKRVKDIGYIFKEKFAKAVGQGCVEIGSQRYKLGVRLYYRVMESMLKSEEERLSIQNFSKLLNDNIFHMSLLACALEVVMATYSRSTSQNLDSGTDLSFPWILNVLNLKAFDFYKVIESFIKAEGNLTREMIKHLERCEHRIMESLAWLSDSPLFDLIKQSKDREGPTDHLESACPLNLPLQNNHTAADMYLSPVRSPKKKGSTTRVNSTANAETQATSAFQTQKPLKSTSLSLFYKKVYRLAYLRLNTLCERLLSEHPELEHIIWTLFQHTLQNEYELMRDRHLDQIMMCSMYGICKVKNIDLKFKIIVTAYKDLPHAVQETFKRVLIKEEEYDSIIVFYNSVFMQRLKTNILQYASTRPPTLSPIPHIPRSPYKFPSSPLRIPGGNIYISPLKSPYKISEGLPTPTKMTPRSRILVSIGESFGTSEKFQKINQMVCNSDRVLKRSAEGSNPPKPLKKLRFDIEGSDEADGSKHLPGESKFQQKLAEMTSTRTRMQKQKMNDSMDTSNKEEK", "assay": "RPA, competition: +free pRb peptide 100 nM"}, "[3]": {"target": "Histone H3-BSA 2.7x peptide-protein conjugate (bovine)", "sequence (P02769 25-607 limits assumed)": "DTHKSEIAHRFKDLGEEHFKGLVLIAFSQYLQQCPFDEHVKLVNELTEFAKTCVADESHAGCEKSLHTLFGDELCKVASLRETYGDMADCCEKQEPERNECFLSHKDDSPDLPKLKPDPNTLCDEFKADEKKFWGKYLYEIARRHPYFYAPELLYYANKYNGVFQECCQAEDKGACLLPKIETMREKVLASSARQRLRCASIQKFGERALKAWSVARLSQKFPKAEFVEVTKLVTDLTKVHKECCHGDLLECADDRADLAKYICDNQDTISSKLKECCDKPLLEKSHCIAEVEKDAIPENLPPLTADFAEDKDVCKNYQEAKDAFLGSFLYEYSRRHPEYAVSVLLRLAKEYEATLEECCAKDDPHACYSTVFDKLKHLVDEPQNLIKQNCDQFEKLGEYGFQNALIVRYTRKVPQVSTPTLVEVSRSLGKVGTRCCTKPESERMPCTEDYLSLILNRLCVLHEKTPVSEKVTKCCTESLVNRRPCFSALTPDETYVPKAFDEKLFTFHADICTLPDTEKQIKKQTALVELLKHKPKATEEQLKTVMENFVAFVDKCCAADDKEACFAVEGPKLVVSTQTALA", "assay": "RPA, competition: +free pRb peptide 100 nM"}, "[4]": {"target": "ERK1 (p42) active (phospho), human, Active Motif 31 152 (human) (UniProt P27361)", "assay": "RPA, competition: +free pRb peptide 100 nM"}, "[5]": {"target": "ERK1 (p44) active (GST tagged), human, Invitrogen PV 3311 (human) (UniProt P27361)", "assay": "RPA, competition: +free pRb peptide 100 nM"}, "[6]": {"target": "Histone H3 recombinant protein, human, Upstate 14-494 (human) (UniProt P68431)", "assay": "RPA, competition: +free pRb peptide 100 nM"}, "[7]": {"target": "ERK1 (p44), human, Cell Signaling Technology 7416 (human) (UniProt P27361)", "assay": "RPA, competition: +free pRb peptide 100 nM"}, "[8]": {"target": "Erk1-BSA 2.7x peptide-protein conjugate (human; bovine)", "sequence (peptide, as listed by the source limits assumed, chain 1 of 2)": "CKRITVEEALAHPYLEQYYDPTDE", "sequence (P02769 25-607 limits assumed, chain 2 of 2)": "as the sequence (P02769 25-607 limits assumed) above", "assay": "RPA, competition: +free pRb peptide 100 nM"}, "[9]": {"target": "Histone H3 recombinant protein, calf, Roche 11 034 758 001 (calf) (UniProt P68432)", "assay": "RPA, competition: +free pRb peptide 100 nM"}, "[10]": {"target": "ERK1 (p44) inactive (GST tagged), human, Invitrogen PV 3312 (human) (UniProt P27361)", "assay": "RPA, competition: +free pRb peptide 100 nM"}, "[11]": {"target": "pRb-BSA 1x peptide-protein conjugate (bovine)", "sequence (P02769 25-607 limits assumed)": "as above", "assay": "RPA, competition: +free pRb peptide 100 nM"}, "[12]": {"target": "pErk1/2-BSA 2.7x peptide-protein conjugate (human; bovine)", "sequence (P02769 25-607 limits assumed)": "as above", "assay": "RPA, competition: +free pRb peptide 100 nM"}, "[13]": {"target": "pRb recombinant protein, human, Active Motif 31 128 (human) (UniProt P06400)", "assay": "RPA standard curves"}, "[14]": {"target": "pRb recombinant protein, human, Active Motif 31 128 (human) (UniProt P06400)", "assay": "RPA standard curves, mean of duplicate assays"}, "[15]": {"target": "pRb-BSA 1x peptide-protein conjugate (bovine)", "assay": "RPA standard curves, mean of duplicate assays"}, "[16]": {"target": "pRb recombinant protein, human, Active Motif 31 128 (human) (UniProt P06400)", "assay": "RPA standard curve, assay 1, LOD back-calculated from one-site fit"}, "[17]": {"target": "pRb-BSA 1x peptide-protein conjugate (bovine)", "assay": "RPA standard curve, assay 1, LOD back-calculated from one-site fit"}, "[18]": {"target": "pRb recombinant protein, human, Active Motif 31 128 (human) (UniProt P06400)", "assay": "RPA standard curve, assay 2, LOD back-calculated from one-site fit"}, "[19]": {"target": "pRb-BSA 1x peptide-protein conjugate (bovine)", "assay": "RPA standard curve, assay 2, LOD back-calculated from one-site fit"}, "[20]": {"target": "ERK2 (p42), human, Biosource PHO 0104 (human) (UniProt P28482)", "assay": "RPA, competition: +free pRb peptide 10 nM"}, "[21]": {"target": "pRb recombinant protein, human, Active Motif 31 128 (human) (UniProt P06400)", "assay": "RPA, competition: +free pRb peptide 10 nM"}, "[22]": {"target": "Histone H3-BSA 2.7x peptide-protein conjugate (bovine)", "assay": "RPA, competition: +free pRb peptide 10 nM"}, "[23]": {"target": "ERK1 (p42) active (phospho), human, Active Motif 31 152 (human) (UniProt P27361)", "assay": "RPA, competition: +free pRb peptide 10 nM"}, "[24]": {"target": "ERK1 (p44) active (GST tagged), human, Invitrogen PV 3311 (human) (UniProt P27361)", "assay": "RPA, competition: +free pRb peptide 10 nM"}, "[25]": {"target": "Histone H3 recombinant protein, human, Upstate 14-494 (human) (UniProt P68431)", "assay": "RPA, competition: +free pRb peptide 10 nM"}, "[26]": {"target": "ERK1 (p44), human, Cell Signaling Technology 7416 (human) (UniProt P27361)", "assay": "RPA, competition: +free pRb peptide 10 nM"}, "[27]": {"target": "Erk1-BSA 2.7x peptide-protein conjugate (human; bovine)", "assay": "RPA, competition: +free pRb peptide 10 nM"}, "[28]": {"target": "Histone H3 recombinant protein, calf, Roche 11 034 758 001 (calf) (UniProt P68432)", "assay": "RPA, competition: +free pRb peptide 10 nM"}, "[29]": {"target": "ERK1 (p44) inactive (GST tagged), human, Invitrogen PV 3312 (human) (UniProt P27361)", "assay": "RPA, competition: +free pRb peptide 10 nM"}, "[30]": {"target": "pRb-BSA 1x peptide-protein conjugate (bovine)", "assay": "RPA, competition: +free pRb peptide 10 nM"}, "[31]": {"target": "pErk1/2-BSA 2.7x peptide-protein conjugate (human; bovine)", "assay": "RPA, competition: +free pRb peptide 10 nM"}, "[32]": {"target": "ERK2 (p42), human, Biosource PHO 0104 (human) (UniProt P28482)", "assay": "RPA, competition: +free pRb peptide 1000 nM"}, "[33]": {"target": "pRb recombinant protein, human, Active Motif 31 128 (human) (UniProt P06400)", "assay": "RPA, competition: +free pRb peptide 1000 nM"}, "[34]": {"target": "Histone H3-BSA 2.7x peptide-protein conjugate (bovine)", "assay": "RPA, competition: +free pRb peptide 1000 nM"}, "[35]": {"target": "ERK1 (p42) active (phospho), human, Active Motif 31 152 (human) (UniProt P27361)", "assay": "RPA, competition: +free pRb peptide 1000 nM"}, "[36]": {"target": "ERK1 (p44) active (GST tagged), human, Invitrogen PV 3311 (human) (UniProt P27361)", "assay": "RPA, competition: +free pRb peptide 1000 nM"}, "[37]": {"target": "Histone H3 recombinant protein, human, Upstate 14-494 (human) (UniProt P68431)", "assay": "RPA, competition: +free pRb peptide 1000 nM"}, "[38]": {"target": "ERK1 (p44), human, Cell Signaling Technology 7416 (human) (UniProt P27361)", "assay": "RPA, competition: +free pRb peptide 1000 nM"}, "[39]": {"target": "Erk1-BSA 2.7x peptide-protein conjugate (human; bovine)", "assay": "RPA, competition: +free pRb peptide 1000 nM"}, "[40]": {"target": "Histone H3 recombinant protein, calf, Roche 11 034 758 001 (calf) (UniProt P68432)", "assay": "RPA, competition: +free pRb peptide 1000 nM"}, "[41]": {"target": "ERK1 (p44) inactive (GST tagged), human, Invitrogen PV 3312 (human) (UniProt P27361)", "assay": "RPA, competition: +free pRb peptide 1000 nM"}, "[42]": {"target": "pRb-BSA 1x peptide-protein conjugate (bovine)", "assay": "RPA, competition: +free pRb peptide 1000 nM"}, "[43]": {"target": "pErk1/2-BSA 2.7x peptide-protein conjugate (human; bovine)", "assay": "RPA, competition: +free pRb peptide 1000 nM"}, "[44]": {"target": "pRb recombinant protein, human, Active Motif 31 128 (human) (UniProt P06400)", "assay": "RPA, normal assay"}, "[45]": {"target": "Histone H3-BSA 2.7x peptide-protein conjugate (bovine)", "assay": "RPA, normal assay"}, "[46]": {"target": "Histone H3 recombinant protein, human, Upstate 14-494 (human) (UniProt P68431)", "assay": "RPA, normal assay"}, "[47]": {"target": "Erk1-BSA 2.7x peptide-protein conjugate (human; bovine)", "assay": "RPA, normal assay"}, "[48]": {"target": "pRb-BSA 1x peptide-protein conjugate (bovine)", "assay": "RPA, normal assay"}},
  "data": [
    {"substance": "Rb phospho (pRb) Ser807/811 antibody, Cell Signaling Technology #9308", "values": [
      {"measurement": "maximum standard curve signal", "setting": "[1]", "value": "< 0.01", "unit": "RFI"},
      {"measurement": "maximum standard curve signal", "setting": "[2]", "value": "< 0.01", "unit": "RFI"},
      {"measurement": "maximum standard curve signal", "setting": "[3]", "value": 0.02, "unit": "RFI"},
      {"measurement": "maximum standard curve signal", "setting": "[4]", "value": "< 0.01", "unit": "RFI"},
      {"measurement": "maximum standard curve signal", "setting": "[5]", "value": "< 0.01", "unit": "RFI"},
      {"measurement": "maximum standard curve signal", "setting": "[6]", "value": "< 0.01", "unit": "RFI"},
      {"measurement": "maximum standard curve signal", "setting": "[7]", "value": "< 0.01", "unit": "RFI"},
      {"measurement": "maximum standard curve signal", "setting": "[8]", "value": "< 0.01", "unit": "RFI"},
      {"measurement": "maximum standard curve signal", "setting": "[9]", "value": "< 0.01", "unit": "RFI"},
      {"measurement": "maximum standard curve signal", "setting": "[10]", "value": "< 0.01", "unit": "RFI"},
      {"measurement": "maximum standard curve signal", "setting": "[11]", "value": "< 0.01", "unit": "RFI"},
      {"measurement": "maximum standard curve signal", "setting": "[12]", "value": "< 0.01", "unit": "RFI"},
      {"measurement": "signal intensity relative to the pRb-BSA peptide standard curves", "setting": "[13]", "value": 10, "unit": "%"},
      {"measurement": "mean LOD", "setting": "[14]", "value": 0.097, "unit": "nM"},
      {"measurement": "mean LOD", "setting": "[15]", "value": 0.025, "unit": "nM"},
      {"measurement": "LOD", "setting": "[16]", "value": 0.117, "unit": "nM"},
      {"measurement": "LOD", "setting": "[17]", "value": 0.024, "unit": "nM"},
      {"measurement": "LOD", "setting": "[18]", "value": 0.077, "unit": "nM"},
      {"measurement": "LOD", "setting": "[19]", "value": 0.026, "unit": "nM"},
      {"measurement": "maximum standard curve signal", "setting": "[20]", "value": "< 0.01", "unit": "RFI"},
      {"measurement": "maximum standard curve signal", "setting": "[21]", "value": "< 0.01", "unit": "RFI"},
      {"measurement": "maximum standard curve signal", "setting": "[22]", "value": 0.02, "unit": "RFI"},
      {"measurement": "maximum standard curve signal", "setting": "[23]", "value": "< 0.01", "unit": "RFI"},
      {"measurement": "maximum standard curve signal", "setting": "[24]", "value": "< 0.01", "unit": "RFI"},
      {"measurement": "maximum standard curve signal", "setting": "[25]", "value": "< 0.01", "unit": "RFI"},
      {"measurement": "maximum standard curve signal", "setting": "[26]", "value": "< 0.01", "unit": "RFI"},
      {"measurement": "maximum standard curve signal", "setting": "[27]", "value": "< 0.01", "unit": "RFI"},
      {"measurement": "maximum standard curve signal", "setting": "[28]", "value": "< 0.01", "unit": "RFI"},
      {"measurement": "maximum standard curve signal", "setting": "[29]", "value": "< 0.01", "unit": "RFI"},
      {"measurement": "maximum standard curve signal", "setting": "[30]", "value": 0.07, "unit": "RFI"},
      {"measurement": "maximum standard curve signal", "setting": "[31]", "value": 0.01, "unit": "RFI"},
      {"measurement": "maximum standard curve signal", "setting": "[32]", "value": "< 0.01", "unit": "RFI"},
      {"measurement": "maximum standard curve signal", "setting": "[33]", "value": "< 0.01", "unit": "RFI"},
      {"measurement": "maximum standard curve signal", "setting": "[34]", "value": 0.01, "unit": "RFI"},
      {"measurement": "maximum standard curve signal", "setting": "[35]", "value": "< 0.01", "unit": "RFI"},
      {"measurement": "maximum standard curve signal", "setting": "[36]", "value": "< 0.01", "unit": "RFI"},
      {"measurement": "maximum standard curve signal", "setting": "[37]", "value": "< 0.01", "unit": "RFI"},
      {"measurement": "maximum standard curve signal", "setting": "[38]", "value": "< 0.01", "unit": "RFI"},
      {"measurement": "maximum standard curve signal", "setting": "[39]", "value": "< 0.01", "unit": "RFI"},
      {"measurement": "maximum standard curve signal", "setting": "[40]", "value": "< 0.01", "unit": "RFI"},
      {"measurement": "maximum standard curve signal", "setting": "[41]", "value": "< 0.01", "unit": "RFI"},
      {"measurement": "maximum standard curve signal", "setting": "[42]", "value": "< 0.01", "unit": "RFI"},
      {"measurement": "maximum standard curve signal", "setting": "[43]", "value": "< 0.01", "unit": "RFI"},
      {"measurement": "maximum standard curve signal", "setting": "[44]", "value": 0.04, "unit": "RFI"},
      {"measurement": "maximum standard curve signal", "setting": "[45]", "value": 0.03, "unit": "RFI"},
      {"measurement": "maximum standard curve signal", "setting": "[46]", "value": 0.01, "unit": "RFI"},
      {"measurement": "maximum standard curve signal", "setting": "[47]", "value": 0.01, "unit": "RFI"},
      {"measurement": "maximum standard curve signal", "setting": "[48]", "value": 0.47, "unit": "RFI"}
    ]}
  ]
}
